Reference: paper PMC9482650, “Quantitative fragmentomics allow affinity mapping of interactomes” (Nature Communications, 2022)

T1: CARD11, Q9BXL7
T1 sequence (Q9BXL7 662-765, limits assumed, looked up): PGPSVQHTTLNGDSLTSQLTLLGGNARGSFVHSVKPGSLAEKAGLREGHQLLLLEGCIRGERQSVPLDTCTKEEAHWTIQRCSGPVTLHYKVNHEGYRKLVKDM

T2: DFNB31_1, Q9P202
T2 sequence (Q9P202 135-233, limits assumed, looked up): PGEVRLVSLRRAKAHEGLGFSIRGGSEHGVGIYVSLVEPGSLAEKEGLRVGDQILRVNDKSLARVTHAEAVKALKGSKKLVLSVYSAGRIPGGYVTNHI

T3: APBA3_1, O96018
T3 sequence (O96018 389-490, limits assumed, looked up): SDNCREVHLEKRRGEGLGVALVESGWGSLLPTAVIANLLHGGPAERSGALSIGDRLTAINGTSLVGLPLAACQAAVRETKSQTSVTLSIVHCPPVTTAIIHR

T4: PDZD7_3, Q9H5P4
T4 sequence (Q9H5P4 857-944, limits assumed, looked up): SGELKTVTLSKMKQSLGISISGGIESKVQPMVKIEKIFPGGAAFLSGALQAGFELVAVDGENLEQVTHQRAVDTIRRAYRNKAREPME

T5: GRIP1_2, Q9Y3R0
T5 sequence (Q9Y3R0 145-248, limits assumed, looked up): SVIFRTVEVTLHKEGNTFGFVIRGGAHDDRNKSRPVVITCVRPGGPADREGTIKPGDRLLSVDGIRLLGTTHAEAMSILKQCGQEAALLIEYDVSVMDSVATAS

T6: LIN7A, O14910
T6 sequence (O14910 103-200, limits assumed, looked up): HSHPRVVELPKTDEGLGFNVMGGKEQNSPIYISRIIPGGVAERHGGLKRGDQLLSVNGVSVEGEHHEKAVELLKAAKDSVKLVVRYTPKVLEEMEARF

T7: PDZRN3_1, Q9UPQ7
T7 sequence (Q9UPQ7 244-349, limits assumed, looked up): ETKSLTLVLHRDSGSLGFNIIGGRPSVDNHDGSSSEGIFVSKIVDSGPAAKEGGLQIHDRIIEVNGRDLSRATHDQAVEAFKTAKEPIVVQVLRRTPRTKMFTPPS

T8: DVL3, Q92997
T8 sequence (Q92997 244-331, limits assumed, looked up): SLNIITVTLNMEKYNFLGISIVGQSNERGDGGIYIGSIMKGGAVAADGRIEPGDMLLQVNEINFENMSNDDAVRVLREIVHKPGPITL

T9: MPDZ_12, O75970
T9 sequence (O75970 1857-1958, limits assumed, looked up): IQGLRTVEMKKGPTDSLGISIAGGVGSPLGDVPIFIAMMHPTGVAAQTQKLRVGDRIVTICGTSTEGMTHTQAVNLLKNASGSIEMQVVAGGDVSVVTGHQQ

T10: LNX2_2, Q8N448
T10 sequence (Q8N448 334-432, limits assumed, looked up): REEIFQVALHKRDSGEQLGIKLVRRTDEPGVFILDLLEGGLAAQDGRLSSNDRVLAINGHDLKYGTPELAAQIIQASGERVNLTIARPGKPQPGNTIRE

T11: HTRA3, P83110
T11 sequence (P83110 354-453, limits assumed, looked up): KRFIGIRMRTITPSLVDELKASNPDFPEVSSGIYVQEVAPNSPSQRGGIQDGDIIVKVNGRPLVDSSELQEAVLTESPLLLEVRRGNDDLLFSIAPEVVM


Columns and labels:
Assay in all cases: holdup assay
Parameters in all cases: key: below the threshold = too weak to quantify, mostly under pKd 3.1 to 4
Details in all cases: plain residues with an end cap or a label only (N-terminal biotin on a linker: ado-ado)
CARD11, Q9BXL7 = target: T1, CARD11, Q9BXL7
LAP2, Q96RT1 = target: LAP2, Q96RT1
DFNB31_1, Q9P202 = target: T2, DFNB31_1, Q9P202
APBA3_1, O96018 = target: T3, APBA3_1, O96018
PDZD7_3, Q9H5P4 = target: T4, PDZD7_3, Q9H5P4
GRIP1_2, Q9Y3R0 = target: T5, GRIP1_2, Q9Y3R0
LIN7A, O14910 = target: T6, LIN7A, O14910
Inadl_1, Q8NI35 = target: Inadl_1, Q8NI35
MAGI1_1, Q96QZ7 = target: MAGI1_1, Q96QZ7
SCRIB_3, Q14160 = target: SCRIB_3, Q14160
MAGI2_5, Q86UL8 = target: MAGI2_5, Q86UL8
GRIP2_6, Q9C0E4 = target: GRIP2_6, Q9C0E4
Inadl_9, Q8NI35 = target: Inadl_9, Q8NI35
GORASP1, Q9BQQ3 = target: GORASP1, Q9BQQ3
MAGI2_6, Q86UL8 = target: MAGI2_6, Q86UL8
PDZRN3_1, Q9UPQ7 = target: T7, PDZRN3_1, Q9UPQ7
NHERF4_4, Q86UT5 = target: NHERF4_4, Q86UT5
DVL3, Q92997 = target: T8, DVL3, Q92997
GRIP2_7, Q9C0E4 = target: GRIP2_7, Q9C0E4
GORASP2, Q9H8Y8 = target: GORASP2, Q9H8Y8
GRIP2_3, Q9C0E4 = target: GRIP2_3, Q9C0E4
Inadl_4, Q8NI35 = target: Inadl_4, Q8NI35
MPDZ_12, O75970 = target: T9, MPDZ_12, O75970
LNX2_2, Q8N448 = target: T10, LNX2_2, Q8N448
HTRA3, P83110 = target: T11, HTRA3, P83110
TJP2_1, Q9UDY2 = target: TJP2_1, Q9UDY2
DLG2_2, Q15700 = target: DLG2_2, Q15700
DLG2_2, Q15700, sequence (Q15700 189-283): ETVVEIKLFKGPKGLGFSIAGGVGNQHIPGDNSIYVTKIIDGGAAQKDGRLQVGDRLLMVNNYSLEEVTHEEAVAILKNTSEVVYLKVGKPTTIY

Inadl_1, Q8NI35, sequence (Q8NI35 113-229): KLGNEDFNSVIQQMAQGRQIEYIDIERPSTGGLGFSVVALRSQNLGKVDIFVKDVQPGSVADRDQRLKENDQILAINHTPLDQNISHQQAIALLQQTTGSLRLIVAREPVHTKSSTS
TJP2_1, Q9UDY2, sequence (Q9UDY2 24-128): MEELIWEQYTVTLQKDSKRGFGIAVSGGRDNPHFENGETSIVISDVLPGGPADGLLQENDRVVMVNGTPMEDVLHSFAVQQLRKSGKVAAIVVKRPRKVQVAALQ
GORASP1, Q9BQQ3, sequence (Q9BQQ3 1-208): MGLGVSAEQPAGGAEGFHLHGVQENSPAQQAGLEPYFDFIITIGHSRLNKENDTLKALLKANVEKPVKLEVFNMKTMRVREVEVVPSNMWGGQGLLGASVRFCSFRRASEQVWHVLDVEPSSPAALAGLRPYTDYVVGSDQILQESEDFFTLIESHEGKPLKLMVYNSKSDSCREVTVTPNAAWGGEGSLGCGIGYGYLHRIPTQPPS
SCRIB_3, Q14160, sequence (Q14160 999-1103): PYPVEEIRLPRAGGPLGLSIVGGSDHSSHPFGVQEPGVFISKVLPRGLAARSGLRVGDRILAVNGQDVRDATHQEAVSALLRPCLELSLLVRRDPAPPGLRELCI
Inadl_9, Q8NI35, sequence (Q8NI35 1530-1615): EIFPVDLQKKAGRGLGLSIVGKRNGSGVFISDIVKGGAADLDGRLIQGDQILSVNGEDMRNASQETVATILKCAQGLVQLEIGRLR
GRIP2_6, Q9C0E4, sequence (Q9C0E4 648-740): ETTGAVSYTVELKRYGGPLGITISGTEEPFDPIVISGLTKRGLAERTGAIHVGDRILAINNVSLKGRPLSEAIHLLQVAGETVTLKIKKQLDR
GRIP2_3, Q9C0E4, sequence (Q9C0E4 238-339): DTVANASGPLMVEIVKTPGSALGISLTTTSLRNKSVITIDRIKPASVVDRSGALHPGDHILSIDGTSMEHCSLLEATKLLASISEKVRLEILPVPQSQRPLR
MAGI2_5, Q86UL8, sequence (Q86UL8 915-1017): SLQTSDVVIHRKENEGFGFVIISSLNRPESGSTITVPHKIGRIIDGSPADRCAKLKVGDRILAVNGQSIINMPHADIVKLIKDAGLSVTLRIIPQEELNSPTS
Inadl_4, Q8NI35, sequence (Q8NI35 547-651): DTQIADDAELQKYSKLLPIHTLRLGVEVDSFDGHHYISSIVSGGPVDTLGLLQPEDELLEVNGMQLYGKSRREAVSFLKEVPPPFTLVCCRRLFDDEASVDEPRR
LAP2, Q96RT1, sequence (Q96RT1 other isoform, or with tags, fused parts or gaps): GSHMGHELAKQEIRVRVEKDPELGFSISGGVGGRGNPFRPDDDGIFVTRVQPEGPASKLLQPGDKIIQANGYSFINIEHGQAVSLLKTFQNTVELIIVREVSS
NHERF4_4, Q86UT5, sequence (Q86UT5 464-550): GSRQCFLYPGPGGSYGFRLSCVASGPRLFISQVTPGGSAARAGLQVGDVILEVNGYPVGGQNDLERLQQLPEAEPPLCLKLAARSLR
GRIP2_7, Q9C0E4, sequence (Q9C0E4 934-1023): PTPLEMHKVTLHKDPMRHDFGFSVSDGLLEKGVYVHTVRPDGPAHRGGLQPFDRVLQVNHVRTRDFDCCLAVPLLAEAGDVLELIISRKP
MAGI2_6, Q86UL8, sequence (Q86UL8 1141-1229): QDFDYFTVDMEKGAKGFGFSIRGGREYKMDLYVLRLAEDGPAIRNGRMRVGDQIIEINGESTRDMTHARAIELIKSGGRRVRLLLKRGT
MAGI1_1, Q96QZ7, sequence (Q96QZ7 1-106): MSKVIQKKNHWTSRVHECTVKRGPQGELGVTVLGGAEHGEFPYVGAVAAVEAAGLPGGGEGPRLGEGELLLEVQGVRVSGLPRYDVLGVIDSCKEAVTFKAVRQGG

| Binder | pKd (CARD11, Q9BXL7) | pKd (LAP2, Q96RT1) | pKd (DFNB31_1, Q9P202) | pKd (APBA3_1, O96018) | pKd (GRIP1_2, Q9Y3R0) | pKd (Inadl_1, Q8NI35) | pKd (MAGI1_1, Q96QZ7) | pKd (SCRIB_3, Q14160) | pKd (MAGI2_5, Q86UL8) | pKd (GRIP2_6, Q9C0E4) | pKd (Inadl_9, Q8NI35) | pKd (GORASP1, Q9BQQ3) | pKd (MAGI2_6, Q86UL8) | pKd (PDZRN3_1, Q9UPQ7) | pKd (NHERF4_4, Q86UT5) | pKd (DVL3, Q92997) | pKd (GRIP2_7, Q9C0E4) | pKd (GRIP2_3, Q9C0E4) | pKd (Inadl_4, Q8NI35) | pKd (LNX2_2, Q8N448) | also measured |
| --- | --- | --- | --- | --- | --- | --- | --- | --- | --- | --- | --- | --- | --- | --- | --- | --- | --- | --- | --- | --- | --- |
| LRYARPADAL [PPP1R3G, B7ZBB8] | below the threshold | below the threshold | below the threshold | below the threshold | below the threshold | below the threshold | below the threshold | below the threshold | below the threshold | below the threshold | below the threshold | below the threshold | below the threshold | below the threshold | below the threshold | below the threshold | below the threshold | below the threshold | below the threshold | below the threshold | pKd (PDZD7_3, Q9H5P4): below the threshold; pKd (LIN7A, O14910): below the threshold; pKd (GORASP2, Q9H8Y8): below the threshold; pKd (MPDZ_12, O75970): below the threshold; pKd (HTRA3, P83110): below the threshold; pKd (TJP2_1, Q9UDY2): below the threshold; pKd (DLG2_2, Q15700): below the threshold |
| GDHLDRRVVL [VAC14, Q08AM6] | below the threshold | 3.93 | below the threshold | below the threshold | below the threshold | below the threshold | below the threshold | below the threshold | below the threshold | below the threshold | below the threshold | 3.77 | below the threshold | below the threshold | 3.78 | below the threshold | 3.53 | below the threshold | below the threshold | 3.48 | pKd (PDZD7_3, Q9H5P4): 3.69; pKd (LIN7A, O14910): below the threshold; pKd (GORASP2, Q9H8Y8): 3.87; pKd (MPDZ_12, O75970): 3.75; pKd (HTRA3, P83110): below the threshold; pKd (TJP2_1, Q9UDY2): below the threshold; pKd (DLG2_2, Q15700): below the threshold |
| KSTTRSSSSC [NDE1, Q9NXR1;Q9NXR1-2] | below the threshold | below the threshold | below the threshold | below the threshold | below the threshold | below the threshold | below the threshold | below the threshold | below the threshold | below the threshold | below the threshold | below the threshold | below the threshold | below the threshold | below the threshold | below the threshold | below the threshold | below the threshold | below the threshold | below the threshold | pKd (LIN7A, O14910): below the threshold; pKd (GORASP2, Q9H8Y8): below the threshold; pKd (MPDZ_12, O75970): below the threshold; pKd (TJP2_1, Q9UDY2): below the threshold; pKd (DLG2_2, Q15700): below the threshold |
| VGIERETDVL [EZH1, Q92800] | below the threshold | below the threshold | below the threshold | below the threshold | below the threshold | below the threshold | below the threshold | 3.58 | below the threshold | below the threshold | below the threshold | below the threshold | below the threshold | below the threshold | below the threshold | below the threshold | below the threshold | below the threshold | below the threshold | below the threshold | pKd (PDZD7_3, Q9H5P4): below the threshold; pKd (GORASP2, Q9H8Y8): below the threshold; pKd (MPDZ_12, O75970): below the threshold; pKd (HTRA3, P83110): below the threshold; pKd (TJP2_1, Q9UDY2): below the threshold; pKd (DLG2_2, Q15700): below the threshold |
| EYRKDNKVAA [LSM14A, Q8ND56;Q8ND56-2] | below the threshold | below the threshold | below the threshold | below the threshold | below the threshold | below the threshold | below the threshold | below the threshold | below the threshold | below the threshold | below the threshold | below the threshold | below the threshold | below the threshold | below the threshold | below the threshold | below the threshold | below the threshold | below the threshold | below the threshold | pKd (PDZD7_3, Q9H5P4): below the threshold; pKd (LIN7A, O14910): below the threshold; pKd (HTRA3, P83110): below the threshold |
